In patent publication US20160152711A1:

Legend:
[1] = molecular target: sEGFR domain III (residues 310-512) (human) (UniProt P00533); test: size exclusion chromatography (Superdex 200), 4 µM, domain III with Fab 425 and Fab C225 together
[2] = molecular target: sEGFR domain III S460P/G461N (human) (UniProt P00533); test: size exclusion chromatography (Superdex 200), 4 µM; the individual proteins elute at 15.6 mL
[3] = molecular target: sEGFR domain III (residues 310-512) (human) (UniProt P00533); test: as above

elution volume of the tripartite complex [1]: 13.1 mL
elution volume of the mixture [2]: 15.2 mL
elution volume of the complex [3]: 13.9 mL
Substance: Fab 425
